According to article PMC10630886, “Downregulation of stromal syntenin sustains AML development” (EMBO Molecular Medicine, 2023):
One block for each molecule: values may come before it. No end group written: not given here.

Columns and labels:
[1] = molecular target: biotinylated peptide corresponding to the last 25 amino acids of endoglin wild-type; test: SPR; BIAcore T200, 25°C; 100 RU of biotinylated endoglin peptide immobilised on a streptavidin chip; His-tagged protein perfused (0.5 to 120 μM) at 30 μl/min in 10 mM HEPES pH 7.4, 150 mM NaCl, 0.005% Tween 20; apparent KD from equilibrium responses, Langmuir isotherm
[2] = molecular target: T1, 6xHis-tagged GIPC1 construct (UniProt O14908 1-333); test: as above; conditions: both partners purified
T1 construct: also called recombinant GIPC1; source: recombinant; prepared as described previously (PMID: 27386966)
T1 sequence (looked up): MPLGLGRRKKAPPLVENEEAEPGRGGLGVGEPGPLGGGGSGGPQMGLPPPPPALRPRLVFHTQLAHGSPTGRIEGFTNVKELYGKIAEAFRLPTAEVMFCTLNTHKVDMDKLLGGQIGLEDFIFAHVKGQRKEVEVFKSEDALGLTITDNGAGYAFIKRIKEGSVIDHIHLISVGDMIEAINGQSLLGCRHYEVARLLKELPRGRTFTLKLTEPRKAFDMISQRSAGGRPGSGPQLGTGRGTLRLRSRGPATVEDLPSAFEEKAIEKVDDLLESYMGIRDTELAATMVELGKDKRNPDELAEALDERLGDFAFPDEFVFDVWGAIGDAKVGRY

Kd [1]: 27.1 µM
Molecule: 6xHis-tagged syntenin construct (containing the two PDZ domains and the C-terminal domain) (domain or fragment)

Kd [2]: 2.4 µM
B1: biotinylated peptide corresponding to the last 25 amino acids of endoglin wild-type (peptide)
peptide: SSESSSTNHSIGSTQSTPCSTSSMA
modifications: also: biotinylated, position not given here
notes: endoglin (CD105), last 25 C-terminal amino acids, wild type; also called endoglin cytosolic domain; immobilized peptide corresponding to the last 25 C-terminal amino acids of wild-type endoglin
